Reference: the nanobody polyreactivity screen of Harvey et al. (2022)

Assay: yeast display, Sf9 membrane polyspecificity reagent, FACS + sequencing; frameworks hold sequencing errors
Procedure, shortened: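 Nanobodies from a synthetic yeast display library (Saccharomyces cerevisiae BJ5465), induced 36–48 hours with galactose, were stained 1 hour at 4 °C with 10% biotinylated, detergent-solubilized Sf9 membrane reagent, enriched on streptavidin microbeads, then FACS-sorted. Anti-HA (expression) and streptavidin (reagent binding) fluorescence set low and high (top ~1%) gates. Polyreactivity labels come from the gate of origin. Genes were colony-PCR amplified, MiSeq 2 × 250 sequenced and filtered by CDR length.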

Sequence	polyreactivity (PSR sort gate)
QVQIVESGGGLVQAVGSLRLSCAASGRIFHYNSMRWYRQAPGKERELVAAITDSTGGSTYYADSVKGRFTISRDNAKNTVYLQMNSLKPEDTAVYYFAAQDYQYSDYQWWFGYWGQGTKVTVSS	low polyreactivity
QVQLVESGGGLVQAGGSLRLSCAASGRIFGWYAMGWYRQAPGKERELVAAIDGGDDSTYYADSVKGRFTISRDNAKNTVYLQMNSLKPEDTAVYYCAVVGYNWGQGTQVTVSS	low polyreactivity
QDQLVESGGGLVQAGGSLRLSFAASGNIFRYYAMGWYRQAPGKERELVAAISRSGGNTYYADSVKGRFTISRDNAKNTVYLQMNSLKTEDTAVYYCAVVLSTYSYADYDYWGQGTQVTLSS	high polyreactivity
QFQLVESGGGLVQAGGSLRLSCAASGSIFSVYTMGWYRQAPGKERELVAAISTGGGSTYYADSVKGRFTISRDNAKNTVYLQMNSLKPEDTAVYYCATDYGWAPSYWYDSCGQGTQVTVSS	low polyreactivity
QVQLQESGGGLVQVGGSQRLSCAASGNIFYNYAMGWYRHAQGKEREFDATINHGTSINYADSVKGRFTISRDNAKNTVYLQMNSLKPEDTAVYYCAADLSWTDNLFYWGQGTQVTVIS	low polyreactivity
QVQLVESGGGLVQAGGSLRLSCAASGSIFVTYAMGWYRQAPGKERELVASITGRGGSTYYADSVKGRFTISRDNAKNTVYLQMNSLKPEDTAVYYCAARVASRHGWHNYWGQGTQVSVSS	high polyreactivity
QVQLVESGGRLVQAGGSLRLSCAASGFTFDSYDMGWYRQEPGKERELVAAITWSGGSTYYADSVKGRFTISRDNAKNTVYLQMNSLKPEDTAVYYCNADTGTYWVPWYHDGYDYWGQGTQVTVSS	low polyreactivity
QVQLHESGGGMVQAGGSLRLSSAASGIIFDNPNMGWYRLSPGKERELVATINSGATTNYADSVKGRFTISRDNEKNTVYLLMNSLIPEETAVYFCAVDLSPTYFYYWGQGTKVTVSS	high polyreactivity
QVQLVESGGGLVQAGGSLRLSCAASGRTFFDHALGWYRPAPGKERELVAAITSVGSTYYADSVKGRFTISRDNAKNTVYLQMNSLKPEDTAVYYCAAHRHIHYTDARMDYWGQGTQVTVSS	low polyreactivity
QVQLVESGGGLVQAGGSLRLSCAASGSIFRVNDMGWYRQAPGKERELVAAISSNGDDTFYADSVKGRFTISRDNAKNTVYLQMNSLKPEDTAVYYCNAESPTYPDYYFKYTHYDYWGQGTQVTVSS	low polyreactivity
QVQLVESGGRLVQAGGSLRLSCAASGFIFVDYAMGWYRQAPGKERELVAAITYDGGSTYYADSVKGRFTISRDNAKNTVYLPMNSLKPEDTAVYYCATQGLWIFVVVEMDYWGQGTQVTVSS	low polyreactivity
QVQLVESGGGLVQAGGSLRLSCAASGSTFRYYAMGWYRQAPGKERELVAAISRSGTSTYYADSVKGRFTISRDNAKKTVYLQMNSLKPEDTAVYYCAADWHSKIGKGYDYWGQGTQVTVSS	high polyreactivity
QVQLVESGGGLVQAGGSLRLSCAASGRTFLVNAMGWYRQAPGKEREFVAAITSRSGRTNYADSVKGRFTISRDNAKNTVYLQSNSLKPEDTAVYYCNAEGYTVKYWYSRYDYWGQGTQVTVSS	high polyreactivity
QVQLVESVVGLVQAGVSLRLSCSASGFIFGRYAMGWYRQAPGKERELVADISWNGGSTYYADSVKGRFTISRDNAKNTVYLQMNSLKPEDTAVYYCAADYYWASFKYPYLRPYDYWGLGTQVTVSS	high polyreactivity
QVQLVESGGGLVQAGGSLRLSCAASGRIFKVNAMVWYRQPPGKERELVAAIRWSGGSTYYADSVKGRFTISRDNAKNTVYLQMNSLKPEDTAVFYCAATWSRRFDYWGQGSQVTVSS	low polyreactivity
QVQLVESGGGLVQAGGSLRLSCAASGFIFWTYAMGWYRQAPGKERELVARISWSGGSTYYADSVKGRFTISRDNAKNTVYLQMNSLKPEDTAVYYCARLATLYESIEYDYWGHGTQVTVSS	low polyreactivity

Sequence	polyreactivity (PSR sort gate)
QVQLVESGGGLVQAGGSLRLSCAASRSTFYIYVMGWYRQAPGKERELVAAISWSGGSTYYTDSVKGRFTISRDNAKNTVYLQMNSLNPEDTAVYYCNADAHWSVWSYIIDYDYWGEGTQVTVSS	low polyreactivity
QVQLVESGGGLVQAGGSLRLSCAASGFTFKGNAMGWYRQAPGKESELVAGISRSGRTYYADSVKGRFTISRDNAKNSVYLQMNSLKPEDTAVYYCNARNQGWASLPTMGYWGQGTQVTVSS	high polyreactivity
QVQLVESGGGLVQAGGSLRLSCAASGIIFVSYAMGWYRQAPGKERELVADITSGGRTYYADSVKGRFTISRDNAKNTVYLQMNSLKPEDTAVYYCAATYSYKGRWVWVYYWGQGTQVTVSS	high polyreactivity
QVQLVESGGGLVQAGGSLRLSCAASGFTFGSYAMGWYRQAPGKERELVAAITYSGSRTYYADSVKGRFTISRDNAKNTVYLQMNSLKPEDTAVYYCAAVTHYGFDYWGQGTQVTVSS	high polyreactivity
QVQLVESGGGLVQAGGSLRLSCAASGSNLVWNAMGWYRQAPGKERELVAAIDRDTTTYYADSVKGRFTISRDNAKNTVYLQMNSLKPEDTAVYYCAAESWYYLYDYWGQGTQVTVSS	high polyreactivity
QVQLVESGGGLVQAGGSLRLSCAASGRIFRRYAMGWYRQAPAKERELVAAITTSGGSTYYADSVKGRFTISRDNAKNTVYLQMNSQNPADTAVYYCNTVSPYKYDWGLGTQVTVSS	high polyreactivity
HVQLVESGGGLVQAGGSLRLSCAASGNICYGYAMGGYRQAPGKERELVARINWSGSRTYYADSVKGRFTISRDNAKNTVYLQMNSLKPDDTAVYYCNTSTSRVPGNGDYWGQGTQVTVSS	high polyreactivity
QVKLVESGGGLVQAGGSLRLTCAAYGFTFAGYTLGCYRQAPGKERELVAAITSSGGSTYYADYVKGRFTISRDNAKNTVYLQMNSLKPEDTAVYYCAARSHSTYYYWGQGTQVTVSS	high polyreactivity
QVHHVESGGVLVQARVSLRLSCAASGIIIAYYAVGWYGQAPGKESELVAAITSGGSTSYADSVKGRFTISRDNAKNTVYLQMISLKPEDTAVYYCNTDPSGYESGYWGQGTQVTVSS	low polyreactivity
QVQLVESGGGLVQAGGSLRLSCAASGFTFSRYAMGWYRQAPGKERELVAAITSRGGSTYYADSVKGRFTISRDNAKNTVYLQMNSLKPEDTAVYYCAARGWYATWLYYYWGQGTQVTVSS	high polyreactivity
QVQLVESGGGLVQAGGSLRLICAASGSIFITYDMGWYRQAPGKERELVATISTTGGTTYYADSVKGRFTISRDNAKNTVYLQMNSLKPEDTAVYYCATAGPPRGYYAPITLDDYWGQGTQVTVSS	low polyreactivity
QVQLVESGGGLVQAGGSLRLSCAASGSTFAWYAMGWYRQAPGKERELVAAISSGGRTYYADSVKGRFTISRDNAKNTVYLQMNSLKPEDTAVYYCNAVDWAYGMDYWGQGTQVTVSS	low polyreactivity
QVQLVESGGALVQAGGSLRLSCAPSGLTFSDYAMGWYRQAPGKEREFVAGISSGGSTYYADSVKGRFTISRDNAKNTVYFQMKSLKPEDTAVYFCAGTRYNSWPIKFDYWGQGTQVTVSS	high polyreactivity
QVQLVESGGGLVQAGVSLRLSCAASGFTFQAYAMGWYRQAPGKERELVAAIRSRGDSTYYADSVKGRFTISRDNSKNTVYLQMNSLKPEDTAVYYCNVLGYSYWGQGTQVTVSS	high polyreactivity
QVQLVESGGGVVQAGGSLRLSCAASGRIFYKYAMGWYRQAPGKAREFVATISSSGGSTYYADSVKGRFTISRDNAKNTAYLQMNSLKPEDTAVYYCAARYGRVTREYWGQGTQVTVSS	high polyreactivity
QVQLVESGGGLVQAGGSLRLSCAASGSTIVRYAMGWYRQAPGKERELVAAISGGGSTSYADSVKGRFTISRDNAKNTVYLQMNSLKPEDTAVYYCAKAGYRSEFEYWGQGTQVTVSS	low polyreactivity
